This is an account of results in patent publication US20220204626A1 (REMEGEN, published 2022).

Experiment [1] has as its target T1, TGF-β1 (UniProt P01137 279-390, limits assumed). Nature of the experiment: ELISA, TGF-β1 coated at 2 µg/ml, detection with anti-His-HRP. An excerpt:
(§1) (11) Reading: The absorbance values were read at 450/655 nm respectively using the MD microplate reader. The concentration of the sample to be tested was used as the abscissa and the absorbance value as the ordinate to plot making a 4-PL curve, and the software automatically gave the EC50 value. (see table 7).

For experiment [2], the target named is T1, TGF-β1. Nature of the experiment: ELISA on coated TGF-β1, ratio of EC50 values against TGF-β-R-His.
Excerpt: as §1
A general note: ELISA stands for enzyme-linked immunosorbent assay.

The target in experiment [3] is T1, TGF-β1. Put plainly: ELISA, TGF-β1 coated at 2 µg/ml, detection with goat anti-human Fc-HRP.
Excerpt: as §1

The target of the next experiment is VEGF (UniProt P15692-4 27-191, limits assumed). Put plainly: ELISA, VEGF coated at 1 µg/ml, detection with anti-His-HRP.
Chain of VEGF (P15692 other isoform, or with tags, fused parts or gaps limits assumed): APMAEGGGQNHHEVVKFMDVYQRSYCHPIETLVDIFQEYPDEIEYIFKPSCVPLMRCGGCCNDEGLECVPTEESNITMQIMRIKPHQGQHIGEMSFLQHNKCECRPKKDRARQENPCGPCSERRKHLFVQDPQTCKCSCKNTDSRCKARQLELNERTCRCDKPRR
Excerpt: as §1

A further experiment deals with T2, CTLA-4 Protein (UniProt P16410 36-161, limits assumed).
T2 sequence (looked up): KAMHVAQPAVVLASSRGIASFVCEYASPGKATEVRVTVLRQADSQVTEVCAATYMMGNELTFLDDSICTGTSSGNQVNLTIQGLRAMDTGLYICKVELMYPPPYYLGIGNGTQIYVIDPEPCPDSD
Put plainly: ELISA, CTLA-4 Protein coated at 20 µg/ml, biotinylated sample, detection with streptavidin-HRP. The protocol: Hib-PDC sample well and CD80-His well: Streptavidin-HRP was diluted at 1:2000, and added at 100 μl/well. Then the plate was incubated at 37° C. for 1 h±10 min;
as §1

In general, EC50 refers to the concentration giving half of the maximal effect.

T1 sequence (P01137 279-390 limits assumed): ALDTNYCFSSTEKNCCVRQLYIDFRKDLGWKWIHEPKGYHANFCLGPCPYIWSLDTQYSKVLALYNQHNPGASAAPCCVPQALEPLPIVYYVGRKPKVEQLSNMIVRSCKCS

B1: TGF-β-R-His (receptor)
chain: TIPPHVQKSVNNDMIVTDNNGAVKFPQLCKFCDVRFSTCDNQKSCMSNCSITSICEKPQEVCVAVWRKNDENITLETVCHDPKLPYHDFILEDAASPKCIMKEKKKPGETFFMCSCSSDECNDNIIFSEEYNTSNPD
notes: The His tag is set after the fragment only by default; also called TGF-β receptor monomer; His-tagged TGF-βRII extracellular region fragment; not shown: His tag
In the case of B1, a half-maximal effect in the experiment with TGF-β1 [1] (EC50) was put at 11.6 nM. This counts as double-digit nanomolar.

B2: Hib-PLT (bispecific antibody)
heavy: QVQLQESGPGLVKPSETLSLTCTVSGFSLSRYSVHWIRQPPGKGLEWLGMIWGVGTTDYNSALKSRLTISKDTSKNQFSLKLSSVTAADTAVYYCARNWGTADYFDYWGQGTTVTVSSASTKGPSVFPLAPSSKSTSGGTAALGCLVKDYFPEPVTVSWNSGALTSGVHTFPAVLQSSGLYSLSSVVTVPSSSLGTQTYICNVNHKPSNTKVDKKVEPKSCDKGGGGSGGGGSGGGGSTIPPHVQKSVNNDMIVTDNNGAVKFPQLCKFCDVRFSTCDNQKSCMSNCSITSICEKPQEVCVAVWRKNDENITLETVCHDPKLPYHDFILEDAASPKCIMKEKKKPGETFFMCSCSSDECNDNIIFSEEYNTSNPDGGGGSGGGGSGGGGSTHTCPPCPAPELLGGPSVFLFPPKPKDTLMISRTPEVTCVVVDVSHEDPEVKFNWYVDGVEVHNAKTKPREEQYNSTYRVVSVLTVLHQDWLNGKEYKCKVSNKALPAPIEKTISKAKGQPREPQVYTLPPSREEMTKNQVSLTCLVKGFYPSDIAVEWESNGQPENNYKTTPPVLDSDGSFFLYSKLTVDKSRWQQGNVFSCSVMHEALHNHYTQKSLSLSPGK
light: DIVLTQSPASLAVSPGQRATITCRASKSVHTSGYSYMHWYQQKPGQPPKLLIYLASNLESGVPARFSGSGSGTDFTLTINPVEANDTANYYCQHSGELPYTFGGGTKVEIKRTVAAPSVFIFPPSDEQLKSGTASVVCLLNNFYPREAKVQWKVDNALQSGNSQESVTEQDSKDSTYSLSSTLTLSKADYEKHKVYACEVTHQGLSSPVTKSFNRGEC
notes: also called fusion protein Hib-PLT; Hibody bispecific fusion protein Hib-PLT
As for B2, the “fold better binding activity than TGF-β receptor monomer” value with TGF-β1 [2] is about 70 times. This molecule also showed an EC50 with TGF-β1 [3] of 0.164 nM.

B3: VEGF-R-His (receptor)
chain: GRPFVEMYSEIPEIIHMTEGRELVIPCRVTSPNITVTLKKFPLDTLIPDGKRIIWDSRKGFIISNATYKEIGLLTCEATVNGHLYKTNYLTHRQTNTIIDVVLSPSHGIELSVGEKLVLNCTARTELNVGIDFNWEYPSSKHQHKKLVNRDLKTQSGSEMKKFLSTLTIDGVTRSDQGLYTCAASSGLMTKKNSTFVRVHEP
notes: The His tag is set after the fragment only by default; also called VEGF receptor monomer; not shown: His tag
Consider B3, for which, in the experiment with VEGF, the EC50 amounted to 2150 nM.

B4: CD80-His (ligand)
chain: VIHVTKEVKEVATLSCGHNVSVEELAQTRIYWQKEKKMVLTMMSGDMNIWPEYKNRTIFDITNNLSIVILALRPSDEGTYECVVLKYEKDAFKREHLAEVTLSVKADFPTPSISDFEIPTSNIRRIICSTSGGFPEPHLSWLENGEELNAINTTVSQDPETELYAVSSKLDFNMTTNHSFMCLIKYGHLRVNQTFNWN
modifications: biotinylated sample in the assay (sites not given)
notes: The His tag is set after the fragment only by default; also called CD80 monomer; His-tagged CD80 fragment; not shown: His tag
As for B4, in the experiment with CTLA-4 Protein, the EC50 came to 50.7 nM.
